From article doi:10.1101/2025.03.26.645513 (bioRxiv, 2025)

B1: Escherichia coli O-acetylserine sulfhydrylase CysK (enzyme, UniProt P0ABK5 1-323, looked up)
chain: MSKIFEDNSLTIGHTPLVRLNRIGNGRILAKVESRNPSFSVKCRIGANMIWDAEKRGVLKPGVELVEPTSGNTGIALAYVAAARGYKLTLTMPETMSIERRKLLKALGANLVLTEGAKGMKGAIQKAEEIVASNPEKYLLLQQFSNPANPEIHEKTTGPEIWEDTDGQVDVFIAGVGTGGTLTGVSRYIKGTKGKTDLISVAVEPTDSPVIAQALAGEEIKPGPHKIQGIGAGFIPANLDLKLVDKVIGITNEEAISTARRLMEEEGILAGISSGAAVAAALKLQEDESFTNKNIVVILPSSGERYLSTALFADLFTEKELQQ
B2: Staphylococcus aureus O-acetylserine sulfhydrylase CysK (enzyme, UniProt P63870 1-310, looked up)
chain: MAQKPVDNITQIIGGTPVVKLRNVVDDNAADVYVKLEYQNPGGSVKDRIALAMIEKAEREGKIKPGDTIVEPTSGNTGIGLAFVCAAKGYKAVFTMPETMSQERRNLLKAYGAELVLTPGSEAMKGAIKKAKELKEEHGYFEPQQFENPANPEVHELTTGPELLQQFEGKTIDAFLAGVGTGGTLSGVGKVLKKEYPNIEIVAIEPEASPVLSGGEPGPHKLQGLGAGFIPGTLNTEIYDSIIKVGNDTAMEMSRRVAKEEGILAGISSGAAIYAAIQKAKELGKGKTVVTVLPSNGERYLSTPLYSFDD
B3: Escherichia coli serine acetyltransferase CysE (enzyme)
chain: MSCEELEIVWNNIKAEARTLADCEPMLASFYHATLLKHENLGSALSYMLANKLSSPIMPAIAIREVVEEAYAADPEMIASAACDIQAVRTRDPAVDKYSTPLLYLKGFHALQAYRIGHWLWNQGRRALAIFLQNQVSVTFQVDIHPAAKIGRGIMLDHATGIVVGETAVIENDVSILQSVTLGGTGKSGGDRHPKIREGVMIGAGAKILGNIEVGRGAKIGAGSVVLQPVPPHTTAAGVPARIVGKPDSDKPSMDMDQHFNGINHTFEYGDGI
B4: Neisseria gonorrhoeae serine acetyltransferase CysE (enzyme)
chain: MKKNHLNTTGFDLWHTIREETAAAAAAEPMLASFLHQTVLRHESLGSVLAYHLSSKLGSPIMDVRALFEIYQQALGSDTQISKCVEADLKAIYERDPACDEYSLPLLYFKGFHAIQAHRINHRLYLDGRKTLAYFLQNRMSEVFGVDIHPAARLGYGLMLDHATGFVAGETAVLGNNISILHGVTLGGSGKEGGDRHPKIGDGVMIGANASILGNIRIGSNAKIGAGSVVVSDVPPSITVVGVPAKPVARSLKTPSADMDQNIQFAEIDFMI

Experiments:
[1] = target: Neisseria gonorrhoeae O-acetylserine sulfhydrylase CysK (Neisseria gonorrhoeae); test: SEC-SAXS
[2] = target: Neisseria gonorrhoeae O-acetylserine sulfhydrylase CysK (Neisseria gonorrhoeae); test: SEC
[3] = target: the molecule itself; test: SEC-SAXS
[4] = target: B1; test: SEC
[5] = target: the molecule itself; test: SEC

Neisseria gonorrhoeae O-acetylserine sulfhydrylase CysK (enzyme)
stoichiometry N [1]: 2 | stoichiometry N [2]: 2

B1
stoichiometry N [3]: 2

B2
stoichiometry N [3]: 2

B3
binding result [4]: binds | stoichiometry N [5]: 6

B4
stoichiometry N [5]: 6
